The values below come from patent US9081017 (CAMBRIDGE ENTERPRISE, dated 2015).

The assay has as its target T1, TRAF2 (mouse, endogenous) (mouse, UniProt P39429 2-501).
T1 construct: Endogenous protein; also called TNF-receptor associated factor 2
T1 sequence (looked up): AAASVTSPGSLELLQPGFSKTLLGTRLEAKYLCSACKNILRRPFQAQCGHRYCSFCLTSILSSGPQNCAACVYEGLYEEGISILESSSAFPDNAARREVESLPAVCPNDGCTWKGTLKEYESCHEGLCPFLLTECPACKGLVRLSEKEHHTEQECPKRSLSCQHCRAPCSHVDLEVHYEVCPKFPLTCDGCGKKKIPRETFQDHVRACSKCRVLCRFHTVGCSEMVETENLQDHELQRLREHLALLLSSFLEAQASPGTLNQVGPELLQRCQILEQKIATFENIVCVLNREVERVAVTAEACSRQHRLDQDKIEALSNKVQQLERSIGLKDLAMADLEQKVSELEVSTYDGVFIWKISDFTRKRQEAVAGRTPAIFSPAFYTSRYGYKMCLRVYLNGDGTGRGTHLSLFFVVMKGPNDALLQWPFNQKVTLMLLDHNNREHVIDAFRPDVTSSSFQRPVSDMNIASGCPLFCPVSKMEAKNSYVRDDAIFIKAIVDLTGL
The assay is described as follows: co-immunoprecipitation from ischemic hindlimb muscle of C57BL/6 mice.

B1: TNFR2 (mouse, endogenous in hindlimb muscle of C57BL/6 mice) (receptor, UniProt P25119 23-474, looked up)
chain: VPAQVVLTPYKPEPGYECQISQEYYDRKAQMCCAKCPPGQYVKHFCNKTSDTVCADCEASMYTQVWNQFRTCLSCSSSCTTDQVEIRACTKQQNRVCACEAGRYCALKTHSGSCRQCMRLSKCGPGFGVASSRAPNGNVLCKACAPGTFSDTTSSTDVCRPHRICSILAIPGNASTDAVCAPESPTLSAIPRTLYVSQPEPTRSQPLDQEPGPSQTPSILTSLGSTPIIEQSTKGGISLPIGLIVGVTSLGLLMLGLVNCIILVQRKKKPSCLQRDAKVPHVPDEKSQDAVGLEQQHLLTTAPSSSSSSLESSASAGDRRAPPGGHPQARVMAEAQGFQEARASSRISDSSHGSHGTHVNVTCIVNVCSSSDHSSQCSSQASATVGDPDAKPSASPKDEQVPFSQEECPSQSPCETTETLQSHEKPLPLGVPDMGMKPSQAGWFDQIAVKVA
notes: Endogenous protein immunoprecipitated from muscle tissue; also called tumor necrosis factor receptor 2
For B1, the binding result was “binds”.
